Reference: publication PMC9672922 (Cellular and Molecular Gastroenterology and Hepatology, 2022)

Legend:
Assay in all cases: peptide or protein array
[1] = molecular target: T1, chromosome 7 open reading frame 50 on the ProtoArray Human Protein Microarray (human, UniProt Q9BRJ6 1-194)
T1 sequence (looked up): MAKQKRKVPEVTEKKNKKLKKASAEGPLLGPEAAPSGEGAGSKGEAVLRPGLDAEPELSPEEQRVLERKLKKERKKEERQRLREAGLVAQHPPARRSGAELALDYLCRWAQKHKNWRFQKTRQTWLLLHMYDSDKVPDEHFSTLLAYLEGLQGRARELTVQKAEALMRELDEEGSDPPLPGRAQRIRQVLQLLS

[2] = molecular target: casein kinase 1ε (CK1ε) on the ProtoArray Human Protein Microarray (human, UniProt P49674 1-416)
Chain of casein kinase 1ε (CK1ε) on the ProtoArray Human Protein Microarray (P49674 whole entry): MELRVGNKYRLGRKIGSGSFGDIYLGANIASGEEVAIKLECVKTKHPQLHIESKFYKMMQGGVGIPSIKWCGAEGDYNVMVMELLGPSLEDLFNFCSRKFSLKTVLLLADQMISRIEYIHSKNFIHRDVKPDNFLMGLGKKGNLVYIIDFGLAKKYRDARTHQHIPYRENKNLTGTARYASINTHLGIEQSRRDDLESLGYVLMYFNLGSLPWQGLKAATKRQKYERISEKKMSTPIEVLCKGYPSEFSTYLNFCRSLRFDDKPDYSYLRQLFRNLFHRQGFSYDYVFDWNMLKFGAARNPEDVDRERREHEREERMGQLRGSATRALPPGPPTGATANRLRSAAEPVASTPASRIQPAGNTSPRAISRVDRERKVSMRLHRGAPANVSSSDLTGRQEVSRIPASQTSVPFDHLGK

[3] = molecular target: carbonic anhydrase 1 on the ProtoArray Human Protein Microarray (human, UniProt P00915 1-261)
Chain of carbonic anhydrase 1 on the ProtoArray Human Protein Microarray (P00915 whole entry): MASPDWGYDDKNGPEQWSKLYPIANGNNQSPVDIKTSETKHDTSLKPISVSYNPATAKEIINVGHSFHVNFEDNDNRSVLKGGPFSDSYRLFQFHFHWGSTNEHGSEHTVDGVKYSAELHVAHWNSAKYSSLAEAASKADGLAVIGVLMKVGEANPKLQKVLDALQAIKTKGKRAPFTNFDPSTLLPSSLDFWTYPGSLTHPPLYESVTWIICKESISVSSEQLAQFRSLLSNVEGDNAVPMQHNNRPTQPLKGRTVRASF

[4] = molecular target: mitogen-activated protein kinase kinase 2 (MEK2) on the ProtoArray Human Protein Microarray (human, UniProt P36507 1-400)
[5] = molecular target: glycogen synthase kinase 3β (GSK3β) on the ProtoArray Human Protein Microarray (human, UniProt P49841 1-420)
Chain of glycogen synthase kinase 3β (GSK3β) on the ProtoArray Human Protein Microarray (P49841 whole entry): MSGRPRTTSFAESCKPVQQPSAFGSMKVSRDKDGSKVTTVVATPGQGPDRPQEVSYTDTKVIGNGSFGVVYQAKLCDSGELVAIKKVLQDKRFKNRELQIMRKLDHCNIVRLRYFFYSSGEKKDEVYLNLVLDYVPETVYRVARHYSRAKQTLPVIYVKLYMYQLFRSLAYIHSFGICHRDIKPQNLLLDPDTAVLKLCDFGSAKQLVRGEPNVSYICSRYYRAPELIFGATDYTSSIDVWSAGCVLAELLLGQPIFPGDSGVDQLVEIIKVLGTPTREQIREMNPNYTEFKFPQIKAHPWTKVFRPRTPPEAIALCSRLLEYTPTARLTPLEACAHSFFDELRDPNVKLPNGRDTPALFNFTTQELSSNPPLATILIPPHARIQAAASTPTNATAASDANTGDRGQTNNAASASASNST

Measured: binding result

B1: V5-SRGY (RBMY amino acid residues 227–374, 4 repeated SRGY box domains) (domain or fragment, human, UniProt P0DJD3-1 227-374, looked up)
chain: ETRDYAPPSRGYAYRDNGHSNRDEHSSRGYRNHRSSRETRDYAPPSRGHAYRDYGHSRRDESYSRGYRNRRSSRETREYAPPSRGHGYRDYGHSRRHESYSRGYRNHPSSRETRDYAPPHRDYAYRDYGHSSWDEHSSRGYSYHDGYG
binds: [1] | [2] | [3] | [4] | [5]
